Reference: PMC6356897

Assays:
[1] = molecular target: Cys36 (UniProt position 37, FTATWCGPCKM); test: chemical modification (iodoacetamide alkylation) with MALDI-TOF mass spectrometry; details: not stated for the alkylation step (pre-reduction at 25 °C); 200 mM acetate/acetic acid (pH 3.5-5.5); 100 mM phosphate (pH 6.0-8.0); 100 mM HEPES-NaOH (pH 7.5-8.5); 100 mM glycine (above pH 8.5); carry-over of 50 mM phosphate pH 7.1 and TCEP from pre-reduction; fully reduced (TCEP), both active-site cysteines free thiols
[2] = molecular target: Cys39 (UniProt position 40, TWCGPCKMIAP); test: as above; details: not stated for the alkylation step (pre-reduction at 25 °C); 200 mM acetate/acetic acid (pH 3.5-5.5); 100 mM phosphate (pH 6.0-8.0); 100 mM HEPES-NaOH (pH 7.5-8.5); 100 mM glycine (above pH 8.5); carry-over of 40 mM phosphate pH 7.1 from pre-alkylation; Cys36 pre-alkylated (carbamidomethylated), Cys39 free thiol

For “Thioredoxin h1 (CrTRXh1) (Chlamydomonas reinhardtii)”, the pKa [1] was 6.63 ± 0.13.

In the case of “Thioredoxin h1 (CrTRXh1), monoalkylated at Cys36 (CrTRXh1-CAM) (Chlamydomonas reinhardtii)”, the pKa [2] is reported as 9.53 ± 0.12.
